Reference: publication PMC2848186

Target: GST-GCN5
Experiment: pull-down; GST-GCN5 (1 ug) immobilised on glutathione beads, pre-treated with DNase I and RNase H; incubated with 600 c.p.m. of in vitro translated [35S]-IN proteins in 0.2 mg/ml ethidium bromide; SDS-PAGE and phosphoimaging; bound protein as percent of radiolabeled input

Sequence of GST-GCN5 (Q92830 2-837): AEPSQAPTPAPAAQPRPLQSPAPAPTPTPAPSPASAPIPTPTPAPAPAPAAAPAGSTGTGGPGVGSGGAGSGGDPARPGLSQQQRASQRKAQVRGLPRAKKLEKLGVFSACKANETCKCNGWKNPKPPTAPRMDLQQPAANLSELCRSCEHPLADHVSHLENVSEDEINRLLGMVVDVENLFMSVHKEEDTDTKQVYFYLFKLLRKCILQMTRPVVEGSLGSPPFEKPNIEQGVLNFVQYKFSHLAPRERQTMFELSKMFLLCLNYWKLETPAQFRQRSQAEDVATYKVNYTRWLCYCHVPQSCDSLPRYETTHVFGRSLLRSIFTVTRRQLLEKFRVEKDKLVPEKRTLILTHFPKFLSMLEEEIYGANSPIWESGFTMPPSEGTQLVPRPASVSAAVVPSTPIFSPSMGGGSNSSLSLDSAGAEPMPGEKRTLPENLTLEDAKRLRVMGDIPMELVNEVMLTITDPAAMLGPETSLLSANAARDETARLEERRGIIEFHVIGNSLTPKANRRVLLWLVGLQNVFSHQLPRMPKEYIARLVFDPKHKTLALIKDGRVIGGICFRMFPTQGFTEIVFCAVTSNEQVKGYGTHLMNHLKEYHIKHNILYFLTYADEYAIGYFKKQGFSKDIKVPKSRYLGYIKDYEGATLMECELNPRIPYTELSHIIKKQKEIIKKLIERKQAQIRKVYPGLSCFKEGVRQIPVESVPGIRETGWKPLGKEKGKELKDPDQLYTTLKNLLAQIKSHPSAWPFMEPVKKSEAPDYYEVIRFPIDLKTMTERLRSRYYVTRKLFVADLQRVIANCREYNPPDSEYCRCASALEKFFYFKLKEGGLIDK

| Substance | binding efficiency (percent of radiolabeled input bound) [%] |
| --- | --- |
| 35S-IN fragment 1-263 (from UniProt P04585 2-264) (domain or fragment) | 13 |
| 35S-IN fragment 1-272 (from UniProt P04585 2-273) (domain or fragment) | 13 |
| 35S-IN, full-length HIV-1 integrase, in vitro translated (from UniProt P04585) (enzyme) | 16 |
